Assay results reported in the supplement of paper PMC12455559.

Assay: purified protein yield per well (BCA); higher = higher soluble expression
Procedure, shortened: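 The measured quantity is purified protein yield per well, determined with the Pierce Rapid Gold BCA kit. Anything below 25 ug (0.1 mg/mL) lies under the detection threshold. Enzymes were expressed in E. coli C41(DE3) in 2 mL autoinduction cultures with 100 µg/mL kanamycin at 37 °C for 2 h, then 18 °C for 40 h, and purified on an OT-2 robot using Ni-charged magnetic beads and SUMO protease release.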

Purified protein yield per well, < 25 µg:
QTPQAPTAASLNATSGPLSVSTQSVSSLSARGFGGGTVYYPTTAGRYGAVAISPGFTATQSSVAWLGRRLASHGLVVITINTNSTLDQPASRATQLMAALTYVTSASGTTVQSRVDPQRLAVAGHSMGGGGALIAARDNPTLKASLPLTPWNTTTNFSGIRVPTLIVGADGDTVASVTAHARPFYASLPSNTFKAYAELNSASHFTPNSANTPIGRYGVTWLKRFVDNDSRYSPFLCGAEHQAYATAQVFDRYQQNCPY [ESM188]
QTPTRESLSRQGPYQVAYYSSLPDVPEYAGATLYFPANKGDSFGGVAIAPGFIETQENIAWWGEYLASYGFAVLTLDTNSPRDIPALRADALMAAVEIIRGENTRMGSPLRGKIDVTRMAIMGHSMGGGGTLLAANAHSDQLKAAIPFTPWLPDADFSAVAVPTLVIAGEIDRIAAAAGHAWPHFQTLPDNIPKMYLEIKGGNHFIANSVTDNEGLAPNIDVHDLVGSMS [TEP027]
QTSAPTSASLNASSGPLSVSTASVTLPRGFGGGTIYYPTVAAKYGVIAISPGFTATQSSIAWLGRRIATHGFVVITINTNTTLDQPDSRATQLVAALNHVLNSSGTAVRSRIDPARLAVAGHSMGGGGSLIAARDNPTLKASYPMTPWNISSNFSTVRVPTMIIGADGDTVAPVGTHARPFYASLPSSTFKAYGELNGATHFAPNTTSTPIGRYAVAWMKRFVDGDTRYSPFLCGAQHTSYATGLVFDRYNQNCPY [ESM054]
QTSAPTSASLNATAGPLSVSTASVLVPVGFGGGTIYYPTVAGQYGVIAISPGFTATQSSIAWLGRRIATHGFVVITLNTNTTLDQPDSRATQLLAALRYVTNSSGTAVRSRIDATRLAVAGHSMGGGGSLIAARDNPTLKASYPLTPWNISTNFSTVRVPTLIIGADGDTIAPVASHARPFYASLPSTTFKAYGELNNATHFTPNSTSTPIGRYGVAWFKRFLDGDTRYSPFLCGAQHTAYATALVFDRYNQNCPY [ESM141]
QTSAPTSSSLNATSGYLSVASENVSSLSASGFGGGTIYYPSTSGQYGLIAISPGFTATESSVAWIGRKLASHGFVAIVINTNTTLDQPASRARQLRAALDHARLRASSTVRSRIDASRQAVAGHSMGGGGSLIAAEDDPTLKASFPLTPWNTTTSFTNVRVPTMIFGADGDTIAAVAAHARPFYASIPSSTKKAYAELNGATHFTPNSRNEAIGRYGVAWMKRFMDNDTRYSTFLCGSEHNSYNTSLRFDRYNSNCPY [ESM123]
QTSDPTSASLNASAGPLSVSTASVTAPRGFGGGTIYYPTTQARYGVIAISPGFTATETSIAWLGRRIATHGFVVITLNTLTTLDQPASRANQLMAALTYVVNSSSSAVKARIDTARLAVAGHSMGGGGALIAARDNPTLKASYPLTPWNSSTSFSTVRVPTMIVGADGDTIAPVATHARPFYASLPSATSKAYGELNNGTHFSPNSTNTPIGRYGVAWMKRFVDGDTRYSTFLCGTEHTRYATALVFDRFNQNCPY [ESM191]
QTSDPTSTSLNATSGPLSISSTSVSSFSARGFGGGTIYYPSASGRYGVVAISPGYTARQSSIAWLGRRLASHGFVVITIDTNSTLDQPPSRATQLMAALDHVVNRASSTVRSRVDAARLAVAGHSMGGGGSLIAARDNPSLRAVYPMTPWSVSKDFSAVRVPTMIIGADNDSVASVVTHARPFYSSLAASLPKAYGELNNASHFAPNTTNTPIGRYAVTWMKRFVDGDTRYSPFLCGTPHNQYATSQVFARYQQNCPY [ESM134]
QTSPDCSAITISSSTNTGVNLVSTYLESDGIRNGTDYYGSTIYYPQNTTSILASIIIVPGYLNFESSMQNWGPFLASHGIVCMTIGTNNIFDLVNDRKEALQDALISLKAENTRVNSPLFNKLNTSRVALAGWSMGGGGAQLAAVEDSTIKAIIALCPWIDPMQISVNSLIHDVPVLFFSGQFDAVAPSSTHANIHYNYTPSTTDKLIYEISSGGHTVANVPSGGQGEVGRMALSWLKKYLIEDYCYCPLLLDTPLTASIYQTNVTCSTYGCTDSIALNYDPLATTDDGTCIYCVYGCTDSTSVNYAPLAICDDGTCIASVYGCTNATACNYYAGANINDGSCEWTSCNPTSCGASAITGLGVTNVIHDRVTLTFDNMNTYDTSGAQICRVDQLRIKYREVGTSSWSQKNMAAPTGYDPTTGICNSTQNTDKLVLGLSGSTTYEWEMRVWYCVTGATAWVVGPDFTTADNCPNIGSFTAYGSNPIRATFDWDDSNGSYEFVRIKMRVDSISNPQGTDWFQVGGFGVTYGTFTKDKNGLVAGETYRAQARTWCDPNGGAYNSLSWTALATW [TEP033]
QTTAPTSASLNASAGPLSVSTASVTAPRGFGGGTIYYPTTQARYGVIAISPGFTATQTSIAWLGRRIATHGFVVITLNTLTTLDQPDSRANQLMAALNHVINSSSSAVKARIDTSRLAVAGHSMGGGGALIAARDNPSLKASYPLTPWNINSAFSTVRVPTMIVGADGDTVAPVGTHARPFYAALPGATSKAYGELNGATHFSPNSTNTPIGRYGVAWMKRFLDGDTRYSTFLCGTEHTRYATALVFDRYNQNCPY [ESM122]
QTTAPTSASLNATAGPLSIASASVSSLAASGFGGGTIYYPTTSGRFGVVAISPGYTASQSTIAWLGRRMASHGFVVITIDTNTTLDYPESRATQLRAALDHVINRASTTVRNKVDPARRAVAGHSMGGGGSLIAAEADSTLKAAYPMTPWNISENFSRVRVPTMIIGADGDTIAPVISHARPFYGSIPNTTFKAYGELNNASHFAPNTTNTPIGRYGVAWMKRFVDGDTRYSTFLCGAEHNRYNTSLVFDQYRSNCPY [ESM079]
QTTAPTSASLNATAGPLSVSTASVSLPRGFGGGTIYYPTTQARYGVIAISPGFTATETSIAWLGRRIATHGFVVITLNTLTTLDQPASRANQLMAALSYVVNSSTSAVKARIDTTRLAVAGHSMGGGGALIAARDNPTLKASYPLTPWNSSTSFSTVRVPTMIIGADGDTIAPVAAHARPFYASLPGATTKAYGELNGGTHFSPNSTNTPIGRYGVAWMKRFVDGDTRYSTFLCGTEHTRYASALVFDRYNQNCPY [ESM124]
QTTAPTSSSLNATAGPYSVSTSSVTLPVGFGGGTVYYPTQTGKYGVIAISPGFTATQSSIAWLGRRLATHGFVVLTMNTLTTLDQPASRANQLMAALNYVLNSSPSAVRSRADGTRTAVAGHSMGGGGSLIAARDYPTLKASYPMTPWSPTSNFSTVRVPTMIIGADGDTIAPVATMSRVYYQNLPSTTSKAYGELNNATHFAPNMTNTPIGRYAVTWMKRFVDSDTRYSPFLCGAPHQAYATSLVFDRYSQNCPY [ESM083]
QVANPYAKGPNPTEASVTATTGPFAVTTSNISSLVSGFGGGRLYYPTATNQGTYGAIALSPGFTAGWSSIDWLGPRLASFGFVVIGIETNSRYDYPPSRGEQLLAALDWAVEDSPAASRIDPTRLAVGGHSMGGGGSLEAASDRPSLKAVLPLAPWNSDKTWNEVQVPTLIIGGESDTVAPVGSHSTPFYNSLSGEKAFLELNNASHFFPQSPNNLVAKLAISWAKRWVDNDTRYSQFLCPGPASGGLSEVQAYRQTCPF [TEP096]
QVGPAPSSSSLNATAGPFAVSTSNVILARGFGGGTIYYPSTSGLYGVVAISPGFTATESSVAWLGRRMATHGLVVITINTNTTLDQPASRATQLMAALNYVVNSASSTVRSRVDSTKLAVAGHSMGGGGALIAAEDNPTLKASLPLTPWNLSTSFTRVRVPTLIVGADGDSVASVTVHARPFYASLPASTFKAYAELNLASHFTPNSTNTPIGRYGVAWMKRFVDADTRYSPFLCGAEHNAYNTALVFDRYNQNCPY [ESM153]
QVGPDPTSASLNATAGPFSVSTASVISPRGFGGGTIYYPTTTGRYGVVAISPGFTATQSSIAWLGRRLATHGLVVITMNTNSTYDQPSSRATQLMAALNYVVNSSSSTVRARVDSSKLAVAGHSMGGGGALIAAENNPTLKASLPLTPWNSSTNFSDVRVPTLIVGADGDSVASVSRHARPFYASLPSNTFKAYAELNGASHFTPNSTSTPIGRYGVAWMKRFVDADTRYSPFLCGAAHQSYATSLVFDRYSQNCPY [ESM125]
QVGPTPTSSSLNVTAGPFAVSSSRVFSPRGFGGGTIYYPTTSGQYGVVAMSPGFTATESSIAWLGRRLATHGLVVITINTNSTYDQPASRATQLMAALNHVLNSASSTVRSRVDSSKLAVAGHSMGGGGALIAAQNNPTLKAALPLTPWNTSTRFDGVRVPTLIVGADGDSVARVASHARPFYASLPATTFKAYAELNGASHFAPNSTNTPIGRYGVAWMKRFVDADTRYSPFLCGAAHDAYATSAVFDRYNDNCPY [ESM085]
QVVVFEETFSTGLGKFTAAGSVVTSSGAARLDGCYGCTDGSITSTAISTVDFTGLRLSFDRVTSGLDSGEAGIAEFSTNGSTYTAVESIRTASGRVTFNLPTSAENQSGLRLRFRINASLSSETYTVDNIRLEGTSGSGGGTTNPFEKGPDPTKTMLEASTGPFTYTTTTVSSTTASGYRQGTIYHPTNVTGPFAAVAVVPGYLASQSSINWWGPRLASHGFVVITIDTNSTSDQPPSRATQLMAALNQLKTFSNTSSHPIYRKVDPNRLGVMGWSMGGGGTLIAARDNPTLKAAIPFAPWNSSTNFSTVSVPTLIIACESDSTAPVNSHASPFYNSLPSTTKKAYLEMNNGSHSCANSGNSNAGLIGKYGVSWMKRFMDNDTRFSPYLCGAPHQADLSLTAIDEYRENCPY [TEP066]
RDLPPSAPLAANPYERGPAPTVASIEATLGPFATAQTTVAAGSVSGFGGGTIYYPTSTAEGTFGAVAISPGFTARQTSVAWLGPRLASQGFVVITIDTRSVYDQPASRGTQLLAALDYLTNTSTVRTRIDRNRLAVMGHSMGGGGSLSAASTRPALQAAIPLTGWHTQKSWSSVRVPTLVIGAENDTVAPVSSHSEPFYTSLPATLDKAYLELNAASHSAPTSSNVTVAKYSISWLKRFVDDDTRYEQFLCPAPRGSAIEEYRDTCPHS [TEP042]
RPAESGASAAAVQATGTQRGPDPTIAMIEATRGPFATAQVSAPSGNGFGGGVVYYPTDTTQGTWGALAIVPGYSALCSTEEAWMGPWLSSFGFVVICTETNTRTDSDSQRAAELQAALTWLTTQSPVKSEVDPARLSVLGHSAGGAGAMEEAEQHPELRAAIGLAPGFPGQGLTLATDTVPTLIVGGQNDGTVTPSYLSNLYGTLPASTQSDFAQIAGADHVYYTHANNIEMKLIIPWLKVFVDSDTRYTQFLCPTLPDPSTISAYQPKCPYVPSGGSTPPPPTSVAIVGTGSGRCVTVPGGTQTGGTQVQLADCAGGTSQQWTNTATGQLQVFGTSCLDANARGTSPGTKVIIWSCNGQQNQQWTVHADGSITGVQSGLCLDATGAGTANGTPLELWTCNGGSNQKWTLQ [TEP132]
